This is an account of results in patent publication CN109666070A (UNIV TSINGHUA, dated 2019).

Test [1] concerns the target T1, 生物素标记的RBD融合蛋白 (MERS-CoV, UniProt K9N5Q8 367-606). As to the kind of experiment: affinity measurement with biotin-labelled RBD fusion protein; method not stated.
Test [2] concerns the target T1, 生物素标记的RBD融合蛋白. Described as above. The source holds these as a separate data set.

B1: 单克隆抗体MERS-4 (antibody, V domains shown)
VH: EVQLVESGGGLVQPGRSLRLSCAASGFTFSNYAMYWVRQAPGKGLEWVALISYDISTDYYADSVKGRFTISRDNSKNTIYLQMNNLRTEDTALYYCAGNDYWGQGTLVTVSS
VL: QSVLTQSPSASGTPGQRVTISCSGSSSNIGNNYVYWYQQLPGTAPKLLIYWNDQRPSGVPDRFSGSKSGTSASLAISGLRSEDEADYYCAAWDDSLSGAVFGGGTQLTVLG
In general, Kd refers to the free concentration of one partner at which half of the binding sites on the other are occupied at equilibrium, for simple one-to-one binding. Lower therefore signals tighter binding. Usually koff stands for a measure of how fast the partners let go of each other. By kon is commonly meant a measure of how fast the partners come together. Read a high kon as fast association. In the case of B1, the “fold of Kd against that of MERS-4V2” value with 生物素标记的RBD融合蛋白 [1] was 1.71 fold. Also, in the test with 生物素标记的RBD融合蛋白 [2], the Ka was 8e+08 M⁻¹, the Kd came out at 1.25 nM, the koff is 0.00101 s⁻¹ and the kon turned out to be 805000 M⁻¹ s⁻¹.
